Data taken from the nanobody polyreactivity screen of Harvey et al. (2022).

Assay: yeast display, Sf9 membrane polyspecificity reagent, FACS + sequencing; frameworks hold sequencing errors
Method in brief: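 Galactose induction of a Saccharomyces cerevisiae BJ5465 synthetic nanobody display library ran 36–48 hours. The cells were then stained for 1 hour at 4 °C with 10% biotinylated, detergent-solubilized Sf9 membrane reagent, pulled down on streptavidin microbeads and FACS-sorted into low and high (top ~1%) gates on expression and reagent-binding fluorescence. Labels for polyreactivity follow the gate of origin.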

QVQLVESGGGLVQAGGSLRVSCAASGRILPFYAMGWYRQAPGKERELVATISWTSDSTYYADSVKGRFTISRDNAKNTVSLQMNSLKPEDTAVYYCAREYTYTYASTVIYDHWGQGTQVTVSS
polyreactivity (PSR sort gate): low polyreactivity

QVQLVESGGGLVQAGGSLRLSCAASGGTFDTYDMGWYRQAPGKERELVAAIRFGDGTTYYADSVKGRFTISRDNAKNTVYLQMNSLKPEDTAVYYCNTDDPGNYWYAEYDYWGQGTQVTVSS
polyreactivity (PSR sort gate): low polyreactivity

QVQHVESGAGLVQAAGSLRLSCAASGSTFSSYALGWYRQAPGKERELVAAISHGDSTYYADSVKGRFTISRDNAKNTVYLQMNSLKPEDSAVYYCAALHEVWGVDYWGQGTHVTVSS
polyreactivity (PSR sort gate): low polyreactivity

QVQLVESGGGLVQAGGSLRLSCAASGLTFVGNAMGWYRQAPGKERELVASITIGTSTYYADSVKGRFTISRDNAKNTVYLQMNRLKPEDTAVYYCAAEEVFQVYGLALIYDYWGQGTQVTVSS
polyreactivity (PSR sort gate): high polyreactivity

QVQLQESVGGLVQAGGSLRLSCAASGNIFDADIMGRYRQAPGKERELVASITDGGSTNYADSVKGRFTISLDNAKNTVYLHMNSLKPEDTAVYYCAARPHRYTSRHGYWGQGTQVTVSS
polyreactivity (PSR sort gate): high polyreactivity

QVQLVESGGGLDQAGGSLRLSFAASGFTFGYYAMGWYRQEPGKARELVAAITYDGDTTYYADSVKGRITISRDNAKNTVYLQMNSLKPEDTAVYYCNRDVLTFNYDYWGQGTQVTVSS
polyreactivity (PSR sort gate): low polyreactivity

QVQIEESGGGLVQAGGSLRLSCAASGSTFGINAMGWSRQAPGKERELVAAISSRGGSTYYADSVKGRFTISRDNAQNTVYLQMNSLKPADTALYSCNRRGWSRTHQYDYWGQGTQVTVSS
polyreactivity (PSR sort gate): high polyreactivity

QVQLVESGGGLVQAGGSLRLSCAASGSIFAQYAMGWYRQAPGKERELVAAITRGGGNTYYADTVKGRFTISRDNAKNTVYLQMNSLKPEDTAVYYCAANRRDGYVYWGQGTQVTVSS
polyreactivity (PSR sort gate): low polyreactivity

QVHLVESGGGLVHAGGSLRLSCAASGIIFSYYAMGWYRQAPVKERELVAAISRSGVRTYFSDSVKGRFTISRDNAKNTVYLQMNSLKPEDTSVYYCNAEFSPYPYDYWGQGTQVTVSS
polyreactivity (PSR sort gate): high polyreactivity

QVQLVESGGGLVQAGGSLRLSCAASGFIFVRNAMGLYRQAPGKEREFVAAITRSGGSTYYADSVKGRFTISRDNAKNTVYLQMNSLKPEDTAVYYCAARIHGSWSFDYWGQGTQVTVSS
polyreactivity (PSR sort gate): low polyreactivity

QVQLVESGGGLVQAGGSLRLSCAASGRTFASNAMGWSRQAPGKERELVAAITRGGSTNYADSVKGRFTISRDNAKNTVYLQMNSLKPEDTAVYYCAARLSSGFRSYYYWGQGTQVTVSS
polyreactivity (PSR sort gate): high polyreactivity

QVQLVESGGGLVQAGGSLRLSCAASGSTFWYYTMGSYRQAPGKERELVAAIRYSGTRTYYADSVKGRFTISRDNAKTTVYLQMNSLKPEDTAVYYCARYRTPGYQAYLYDYWGQGTQVTVSS
polyreactivity (PSR sort gate): low polyreactivity

QVQLQESGRRPGAAGGSPRMSCAASGNIFWVAVMGRYRQAPGKERELGASIGFGCTTYYADSVKCRFTISRDNAKNTVYLQMISLKPEDTAVYYCAAPHYDWGELDYWGQGTQVPVSS
polyreactivity (PSR sort gate): low polyreactivity

QVQLVESGGGLVQAGGSLRLSCAASGRTFSYYAMGWSRQAPGKERELVATIRFSGGGTYYADSVKGRFTISRDNAKNTVYLLMNSLKPEATAVYYCAALNYHKFAHKYDYWGQGTQVTVSS
polyreactivity (PSR sort gate): low polyreactivity

QVQLVESGGGLVQAGGSLRLSCAASGITFGKYAMGWYRQAPGKERELVAAISWSGGSTYYADSVKGRFTISRDNAKNTVYLQMNSLKPEDTAVYYCAASYPYRRGEFYYYRSSDDDYWGQGTQVTVSS
polyreactivity (PSR sort gate): high polyreactivity

QVQLVESGGGLVQAGGSLRLSCAASGLIFYRNAMGWYRQAPGKERELVAAIRFSTGSTYYADSVKGRFTISRDNAKKTVYLQMNSLKPEDTAVYYCAADRRYYWYNYWGQGTQVTVSS
polyreactivity (PSR sort gate): high polyreactivity

QVQLVESGGGLVQAGGSLRLSCAASGSTFAYNDMGWYRQAPGKERDLVADIRYGGNTNYADSVKGRFTISRDNAKNTDYFQMNSLKPVDTSVYYCATDGYRSDVYHPDYRYDYWGQCTQVTVSS
polyreactivity (PSR sort gate): low polyreactivity

QVQLVESGGGLVQAGGSLRLSCAASGFTFYVYAMGWYRQAPGKERELVAAISRSGGSTYYADSVKGRFTISRDNAKNTVYLQMNSLKPEDTAVYYFAVVQRYWSPGIVPYVYWGQGTQVTVSS
polyreactivity (PSR sort gate): high polyreactivity

QVQLVESGGGLVQAGGSLRLSCAASAFTLLSYAMGWYRQAPGKDRELVASITQRGGSTYYADSVKGRFTISRDNAKNTVDLQMNSLKPEDTAVYYCAARSGYGYRYYYWGQGTQVTVSS
polyreactivity (PSR sort gate): low polyreactivity

QVQLVESGGGLVQAGGSLRLSCAASGFIFSYYAMGRYRQAPGKEREMVAAITWSGSSTYYADSVKGRFTISRDNAKNTVYLQMYSLIPEDNAVYSCAASSGGFRHYFYTYNYWGQGTQVTVSS
polyreactivity (PSR sort gate): high polyreactivity

QVQIVESGGGLVQAGGSLRLSCAASGLTFRSYTIGWYRHAPGKERELVAAISSGGSTYYADSVKGRFTISRDNAKNTVYLQMNSRKPEDTAVYFCAAPRGHGKYYSWGQGTQVTVSS
polyreactivity (PSR sort gate): high polyreactivity

QVQLVESGGGLVQAGGSLRLSCAASGSPFKRYAMGWYRQAPGKERELVAAISSRGSSTYYADSVKGRFTISRDNAKNTVYLQMNSLKPEDTAVYYCAADRYTFWTVHSDYWGQGTQVTVSS
polyreactivity (PSR sort gate): high polyreactivity

QFQLVESGGGLVHAGGRLRLSCAASGITFVTYAMGWYRQAPGKERELVAAISRSGGRPYYADSVKGRFTISRDNATNTDYLQMNSLKPEDTAVYYCAAERKNKYDYWGQGTQVTVSS
polyreactivity (PSR sort gate): high polyreactivity

QVHLVESGGGLVQAGGSLRLTCAASGSIFPYNAMGWYRQSPGEFVAAISYSSGSTYYADSVQGRFTISRDNAKYTVYLQMNCVIPDVTAVYYCAAGSWYPPSYVWLGRYDYWGQGTQVTVSS
polyreactivity (PSR sort gate): low polyreactivity

QVQRVESGGGLVQAGGSLRLSCAASGSTLRYYAMGWYRQAPGKERELVAGIRYRGGSTSYADSVKGRFTISRDNAKNTVYLQMNSLKPEDTAVYYCATGIYRARTSSFRMGYWGQGTQVTVSS
polyreactivity (PSR sort gate): low polyreactivity

QVQLVESGGGLVQAGGSLLLTCAASSSTFRPKVMGWYRQAPGKERELVAAISNGGRTYYADSLKGRFTISRDNAKNTVYLQMNSLKPEDTAVYYCAARGKTTKYNYWGQGTQVTVSS
polyreactivity (PSR sort gate): high polyreactivity

QVHLVESGGGLVQAGGSLRLSCAASGRTLRSYAMGWYRQAPGKERELVAAINWRDTNTYYADSVKGRFTISRDNAKNTVYLQMNSLKPEDTAVYYCAARYYSRGWRYNYWGPGTQVTVSS
polyreactivity (PSR sort gate): high polyreactivity

QVQLVESGGGLVQAGGSLRLICADYGITFRVNAMGWYRQAPGKERELVASISRSGGSTYYADSVKGRFTISRDNAKNTVYLQMNSLKPEDTAVYYCAAAQKVLFYGRWFDYWGQCTQVTVSS
polyreactivity (PSR sort gate): low polyreactivity

QVQLVESGGGLVQAGGSLRLSCAASGSNFPVYAMGWYRQAPGKEREFVAAISYSGGGTYYADSVKGRFTISRDNAKNTVYLQMNSLKPEDTAVYYCAADVSGWEYAYWGQGTQVTVSS
polyreactivity (PSR sort gate): low polyreactivity

QVQLVESGGGLVQAGGSLRLSCAASGSTFGYYAMGWYRQAPGKERELVAAITIRGDGTYYADSVKGRFTISRDNAKNTVYLQMNSLIPEDTAVYYCAAEDWLWFDYWGQGTQVTVSS
polyreactivity (PSR sort gate): high polyreactivity

QVQLVESGGGLVQAGGSLRLSCAASGFILYYYVMGWYRQAPGKERELVAAISTSGTSTYYADSVKGRFTISRDNAKNTVYLQMNSLKPEDTAVYYCAAEKDSSDIMEYWGQGTQVTVSS
polyreactivity (PSR sort gate): high polyreactivity

QVQLVESGGGLVQAGGSLRISCAASGSTFNINAMGWYRQAPGKERELVAAIRYRGGSTNYADSVKGRFTISRDNAKNNVYLQMNSLKPEDTAVYYCAATYSRHTNGYSKYCYWGQGTQVTVSS
polyreactivity (PSR sort gate): high polyreactivity

QVQLVESGGGLVQAGGTLRLICADSGFTFPVYAMGWSRQAPGKERQLVAAITRSGGRTYYADSVKGRFRISRDNAKNTVYLQMNSLKPEDTAFYYCNADYPYGPGSRVRYDYWGQGTQVTVSS
polyreactivity (PSR sort gate): high polyreactivity

QVQLEETGGGLVQAGGSLRLSCAASGFTIYRYALGSYRQAPGKERELVAAISSRGGTTYYADSVKGRFTISRDNAKNTVYLQMNSLKPEDTAVYYCNAGYYLTLDYWGQGTQVTVSS
polyreactivity (PSR sort gate): high polyreactivity

QVQLVESGGGLVQAGGSLRLSCAPAGRTFNGYAMGWYRQAPGKERELVASITLRGGSTYYADSVKGRFTISRDNAKNTVYLQMNSLKPEDTAVYYCNARPHTRRYTFTYGYWGQGTQVTVSS
polyreactivity (PSR sort gate): high polyreactivity

QVQLVESGGGLVQAGGRLRLSCAASGRILYLNAMGWYRQAPGKERELVAAITKSGGSTYYADSVKGRFTISRDNAKNTVYLQMNSLKPEDTAVYYCAAEWVYYDYWQRFLYIDYDYWGQGTHVTVSS
polyreactivity (PSR sort gate): high polyreactivity

QVQLVESGGGLVQAGGSLRLSCAASGRIFYYNAMGWYRQAPGKESELVAAIRYSGGSTSYADSVKGRFTISRDNAKNTVYLQMNSLKPEDTAVYYCAASTSNRWKLNYWGQGTQVTVSS
polyreactivity (PSR sort gate): high polyreactivity

QVQLVESGGGLVQAGGRLSLSCAASGSTFAYYAMGWYRQAPGKERELVAGITWTGGSTYYADSVKGRFTNSRDNAKNTVYLQMNSLKPEDTAVYYCAVTYPYGYEYDHWGQGTQVTVSS
polyreactivity (PSR sort gate): low polyreactivity

QVQLVESGGCLVQAGGSLRLSCAASGFIFSSYAMGWYRQAPGKERELVAAISVSGGSTNYADSVKGRFTISRDNAKNTVFLQMNSLKPEDTAVYYCAARVRDSLVYGGWDDYWGQGTQVTVSS
polyreactivity (PSR sort gate): high polyreactivity

QVQLVESGGGLVQAGGSLRLSCAASGSIFPDNVMGWYRQATGKERELVAAISRTGGSTYYADSVKGRFTISRDNAKNTVYLQMNSLKPEDTAVYYCNAKYRVPYAVGGDYGYWGQGTQVTVSS
polyreactivity (PSR sort gate): high polyreactivity

QVQLVESGGGLVQAGGSLRLSCAASGSTFGRNAMGWYRQAPGKERELVAAITASGGTTYYADSVKGRFTISRDNAMNTVYLQMNSLKPEDTAVYYCARAGHFSFKYDYWGQGTQVTVSS
polyreactivity (PSR sort gate): low polyreactivity

QDQLVESGRGLVQAGGSLRLSCAASGFIFYQNAMGWYRQAPGKERELVAAISWRSGRTYYADSVKGRFTISRDNAKNTVYLQMNSLKPEDTAVYYCNAVRYPSYSPEYGSWGQGTEVTVSS
polyreactivity (PSR sort gate): high polyreactivity

QVQLVESGGGLVQAGGSLRLSCAASGSTFSDYAMGWYRQAPGKERELVAGITETGTTTYYADSVKGRFTISRDNAKNTVYLQMNSLKPEDTAVYYCAAYVVTYYYGTGYYSYDYWGQGTQVTVSS
polyreactivity (PSR sort gate): low polyreactivity
